Target: purified trimeric native F protein of respiratory syncytial virus (respiratory syncytial virus) (UniProt P03420)
Assay: SPR; normalized maximum SPR signal of purified scaffolds, point mutants and RSV-F at various concentrations of hRSV90 antibody, sigmoid fits

purified trimeric native F protein of respiratory syncytial virus (respiratory syncytial virus), sequence (P03420 138-513): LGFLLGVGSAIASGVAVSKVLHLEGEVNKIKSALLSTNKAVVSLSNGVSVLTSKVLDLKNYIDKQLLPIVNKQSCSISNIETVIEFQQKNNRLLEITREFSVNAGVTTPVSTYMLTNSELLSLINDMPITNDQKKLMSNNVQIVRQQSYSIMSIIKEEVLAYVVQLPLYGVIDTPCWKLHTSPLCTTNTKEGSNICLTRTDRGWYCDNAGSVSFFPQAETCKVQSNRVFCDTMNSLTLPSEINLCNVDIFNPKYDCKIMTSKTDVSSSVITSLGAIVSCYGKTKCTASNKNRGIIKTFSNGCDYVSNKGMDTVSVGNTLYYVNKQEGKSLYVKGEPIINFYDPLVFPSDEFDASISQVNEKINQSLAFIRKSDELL

neutralizing antibody hRSV90
Kd: 23 nM

Reference: PMC9621694
